Measured values: US20110014209A1

Key:
[1] = biological target: CD81 MBP-LEL (maltose-binding protein fused to the CD81 large extracellular loop, residues 113-201) (human) (UniProt P60033); assay: CD81 MBP-LEL solid-phase assay, virion-incorporated E2
[2] = biological target: full-length human CD81 expressed on transfected CHO-K1 cells (human) (UniProt P60033); assay: binding to CD81-transfected CHO-K1 cells, 125I-9E10 detection
[3] = biological target: HCV E1 glycoprotein (H77c), expressed from the pE1E2 vectors (hepatitis C virus H77c) (UniProt P27958); assay: cell-based or functional assay

full-length human CD81 expressed on transfected CHO-K1 cells (human), sequence (P60033 whole entry): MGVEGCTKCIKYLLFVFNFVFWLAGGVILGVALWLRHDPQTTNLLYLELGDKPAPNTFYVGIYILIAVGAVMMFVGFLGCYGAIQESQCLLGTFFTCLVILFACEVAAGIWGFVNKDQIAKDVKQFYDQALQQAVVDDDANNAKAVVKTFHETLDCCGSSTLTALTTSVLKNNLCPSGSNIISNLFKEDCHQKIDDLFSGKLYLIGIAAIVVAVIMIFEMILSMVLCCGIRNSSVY
CD81 MBP-LEL (maltose-binding protein fused to the CD81 large extracellular loop, residues 113-201) (human), sequence (P60033 113-201 limits assumed): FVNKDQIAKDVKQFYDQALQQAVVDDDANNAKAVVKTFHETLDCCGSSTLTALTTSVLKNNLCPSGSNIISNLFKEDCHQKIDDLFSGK

Q: Which fold increase in the overall binding curve compared to wild-type [1] does the source give for “E2 glycoprotein expressed from pE1E2 Δ1 (HVR1 deletion, residues 387-408 replaced by GSSG) (from UniProt P27958 409-746)” here?
A: The fold increase in the overall binding curve compared to wild-type was 4 fold.

Q: For “E2 Δ12-myc (from UniProt P27958 384-386; P27958 409-459; P27958 486-661)”, which percent reduction in CD81 binding compared to E2 Δ23-myc [2] is on record?
A: Its percent reduction in CD81 binding compared to E2 Δ23-myc is 50%.

Q: Which E1E2-mediated entry of pseudotyped HIV-1 particles into Huh7 cells (luciferase) [3] does the source give for “E2 glycoprotein expressed from pE1E2 Δ3 link (igVR deletion with extended linker) (from UniProt P27958 384-571; P27958 579-746)” here?
A: Its E1E2-mediated entry of pseudotyped HIV-1 particles into Huh7 cells (luciferase) is 8 fold.
